According to US20090098570A1 (Daiichi Sankyo, published 2009):
Values belong to the binder of their own block, whether it stands above or below them. No end group written: not given here. *: point of attachment. Biotin = O=C1N[C@H]2[C@H](CS[C@H]2CCCCC(=O)*)N1

Experiments:
[1] = biological target: T1, His-LXRα/FLAG-RXRα heterodimer (ligand binding domains of human LXRα and human RXRα) (human, UniProt Q13133 164-447; P19793 201-462); assay: FRET (665/620 nm), anti-His tag antibody + streptavidin, biotinylated peptide; with Compound A, relative to DMSO-only control
T1 construct: Co-expressed in E. coli BL21(DE3) from pET15b-LXRα/FLAG-RXRα and purified together on Ni2+ resin; also called His-LXRα and FLAG-RXRα; heterodimer comprising LXRα and RXRα
T1 sequence 1: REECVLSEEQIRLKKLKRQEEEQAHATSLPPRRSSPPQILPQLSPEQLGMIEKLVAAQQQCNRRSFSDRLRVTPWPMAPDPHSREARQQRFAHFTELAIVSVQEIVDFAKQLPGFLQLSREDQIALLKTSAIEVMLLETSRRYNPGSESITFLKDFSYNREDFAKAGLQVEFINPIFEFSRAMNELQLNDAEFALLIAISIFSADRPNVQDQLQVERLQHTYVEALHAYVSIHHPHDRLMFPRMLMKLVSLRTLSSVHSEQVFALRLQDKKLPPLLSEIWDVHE
T1 sequence 2: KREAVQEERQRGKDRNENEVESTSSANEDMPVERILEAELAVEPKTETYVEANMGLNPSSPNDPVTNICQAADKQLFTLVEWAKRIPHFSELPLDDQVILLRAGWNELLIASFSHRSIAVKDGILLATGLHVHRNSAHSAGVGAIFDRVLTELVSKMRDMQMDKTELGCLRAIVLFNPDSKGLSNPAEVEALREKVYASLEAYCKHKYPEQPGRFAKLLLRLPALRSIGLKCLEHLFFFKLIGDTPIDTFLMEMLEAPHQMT

[2] = biological target: T1, His-LXRα/FLAG-RXRα heterodimer (ligand …); assay: FRET (665/620 nm), anti-His tag antibody + streptavidin, biotinylated peptide; with Compound B, relative to DMSO-only control
[3] = biological target: T2, His-LXRβ/FLAG-RXRα heterodimer (ligand binding domains of human LXRβ and human RXRα) (human) (UniProt P55055); assay: FRET (665/620 nm), anti-His tag antibody + streptavidin, biotinylated peptide; with Compound A, relative to DMSO-only control
T2 sequence 1: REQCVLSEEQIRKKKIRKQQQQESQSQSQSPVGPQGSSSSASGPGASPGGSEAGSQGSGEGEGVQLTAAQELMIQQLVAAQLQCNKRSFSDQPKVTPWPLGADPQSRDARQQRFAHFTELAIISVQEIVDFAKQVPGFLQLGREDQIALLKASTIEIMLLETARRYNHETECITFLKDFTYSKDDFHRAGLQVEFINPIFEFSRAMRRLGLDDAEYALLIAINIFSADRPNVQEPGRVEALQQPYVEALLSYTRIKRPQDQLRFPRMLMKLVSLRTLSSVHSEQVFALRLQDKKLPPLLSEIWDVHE
T2 sequence 2: T1 sequence 2

[4] = biological target: T2, His-LXRβ/FLAG-RXRα heterodimer (ligand binding domains of human LXRβ and human RXRα) (human); assay: FRET (665/620 nm), anti-His tag antibody + streptavidin, biotinylated peptide; with Compound B, relative to DMSO-only control
[5] = biological target: T1, His-LXRα/FLAG-RXRα heterodimer (ligand …); assay: FRET (665/620 nm), anti-His tag antibody + streptavidin, biotinylated peptide; with Compound A, relative to DMSO-only control; remark: listed apart in the source
Method: (§1) Next, 10 μl of peptide reaction solution (1.00 μl of 5 μM peptide, 1.00 μl of 10× PBS, 2.50 μl of 2 M KF, 0.10 μl of 10% NP40, 0.20 μl of streptavidin (CIS Bio International) and 5.20 μl of H₂O) were added to each well of the 384-well assay plate and incubated for 17 hours at 4° C. The peptide added here was comprising of any of the amino acid sequences of (a) to (g) below, and the amino acid of the N-terminal was biotinylated.
(§2) The value obtained by multiplying 1000 by the value resulting from dividing the measured value at 665 nm when applying excitation light at 337 nm by the measured value at 620 nm was determined. This value was then divided by the value determined by the same method when only DMSO was added without adding LXR ligand (Compound A or Compound B), and this value was then multiplied by 100 and indicated as the percentage relative to the control (% of control) as shown in Table 6.
(§3) (1) According to the same method as Example 2) (using the following peptides (h) to (m), instead of the peptides (a) to (g) in Example 2), the amount of coactivator bound to the heterodimer LXRα and RXRα were determined.

[6] = biological target: T1, His-LXRα/FLAG-RXRα heterodimer (ligand …); assay: FRET (665/620 nm), anti-His tag antibody + streptavidin, biotinylated peptide; with Compound B, relative to DMSO-only control; remark: listed apart in the source
Method: as §1, §2, §3

[7] = biological target: T3, His-LXRβ/FLAG-RXRα heterodimer (ligand binding domains of human LXRβ and human RXRα) (human, UniProt P55055 155-460; P19793 201-462, limits assumed); assay: FRET (665/620 nm), anti-His tag antibody + streptavidin, biotinylated peptide; with Compound A, relative to DMSO-only control
T3 construct: Co-expressed in E. coli BL21(DE3) from pET15b-LXRβ/FLAG-RXRα and purified together on Ni2+ resin; also called His-LXRβ and FLAG-RXRα; heterodimer comprising LXRβ and RXRα
T3 sequence 1: T2 sequence 1
T3 sequence 2: T1 sequence 2

[8] = biological target: T3, His-LXRβ/FLAG-RXRα heterodimer (ligand …); assay: FRET (665/620 nm), anti-His tag antibody + streptavidin, biotinylated peptide; with Compound B, relative to DMSO-only control

Binder: Biotin-CPSSHSSLTERHKILHRLLQEGSPS [SRC-1-2 peptide CPSSHSSLTERHKILHRLLQEGSPS (the second LXXLL motif from the N-terminal side of SRC-1)]
% of control [1]: 267 % of control
% of control [2]: 182 % of control

Binder: Biotin-CCFCGEDHPRQGSILYSLLTSSKQT (cysteine pairing not given here) [DAX1 peptide … (aa 132-156)]
% of control [3]: 116 % of control
% of control [4]: 120 % of control

Binder: Biotin-CCFCGEDHPRQGSILYSLLTSSKQT (cysteine pairing not given here) [DAX1 peptide CCFCGEDHPRQGSILYSLLTSSKQT (aa 132-156)]
% of control [5]: 158 % of control
% of control [6]: 107 % of control

Binder: Biotin-NKDVTLTSPLLVNLLQSDISAGHFGVNNKQ [ASC-2 NR-1 peptide … (LXXLL motif on the N-terminal side of ASC-2)]
% of control [3]: 114 % of control
% of control [4]: 115 % of control

Binder: Biotin-KQEPVSPKKKENALLRYLLDKDDTK [TIF2 NRB2 peptide … (aa 731-755)]
% of control [3]: 125 % of control
% of control [4]: 124 % of control

Binder: Biotin-GHGEDFSKVSQNPILTSLLQITGNG [TRAP220 peptide GHGEDFSKVSQNPILTSLLQITGNG (aa 590-614)]
% of control [5]: 131 % of control
% of control [6]: 107 % of control

Binder: Biotin-GHGEDFSKVSQNPILTSLLQITGNG [TRAP220 peptide … (aa 590-614)]
% of control [3]: 111 % of control
% of control [4]: 116 % of control

Binder: Biotin-SPKKKENNALLRYLLDRDDPSDALSK [ACTR NRB3 peptide … (aa 728-753)]
% of control [3]: 129 % of control
% of control [4]: 103 % of control

Binder: Biotin-KNPTSCSRRFYQLTKLLDSVQPIAR [PNRC peptide … (aa 848-872)]
% of control [3]: 109 % of control
% of control [4]: 107 % of control

Binder: Biotin-KESKDHQLLRYLLDKDEKDL [SRC-1-3 peptide … (the third LXXLL motif from the N-terminal side of SRC-1)]
% of control [3]: 111 % of control
% of control [4]: 108 % of control

Binder: Biotin-NKDVTLTSPLLVNLLQSDISAGHFGVNNKQ [ASC-2 NR-1 peptide NKDVTLTSPLLVNLLQSDISAGHFGVNNKQ (LXXLL motif on the N-terminal side of ASC-2)]
% of control [1]: 156 % of control
% of control [2]: 116 % of control

Binder: Biotin-SPAMREAPTSLSQLLDNSGAPNVTIKPPGL [ASC-2 NR-2 peptide … (LXXLL motif on the C-terminal side of ASC-2)]
% of control [3]: 120 % of control
% of control [4]: 116 % of control

Binder: Biotin-SPAMREAPTSLSQLLDNSGAPNVTIKPPGL (also called ASC2 MR-2) [ASC-2 NR-2 peptide SPAMREAPTSLSQLLDNSGAPNVTIKPPGL (LXXLL motif on the C-terminal side of ASC-2)]
% of control [1]: 254 % of control
% of control [2]: 137 % of control

Binder: Biotin-HGTSLKEKHKILHRLLQDSSSPVDL [TIF2 peptide … (aa 679-703)]
% of control [3]: 108 % of control
% of control [4]: 114 % of control

The remaining lines, values ahead:

% of control [3]: 104 % of control
% of control [4]: 115 % of control
Binder: Biotin-HSKASWAEFSILRELLAQDVLCD [PERC NRB2 peptide … (aa 332-354)]

% of control [3]: 120 % of control
% of control [4]: 119 % of control
Binder: Biotin-CPSSHSSLTERHKILHRLLQEGSPS [SRC-1-2 peptide … (the second LXXLL motif from the N-terminal side of SRC-1)]

% of control [5]: 127 % of control
% of control [6]: 104 % of control
Binder: Biotin-HSKASWAEFSILRELLAQDVLCD [PERC NRB2 peptide HSKASWAEFSILRELLAQDVLCD (aa 332-354)]

% of control [1]: 362 % of control
% of control [7]: 191 % of control
% of control [2]: 207 % of control
% of control [8]: 195 % of control
Binder: Biotin-DGTPPPQEAEEPSLLKKLLLAPANT [PGC-1α peptide DGTPPPQEAEEPSLLKKLLLAPANT (aa 130-154)]

% of control [1]: 181 % of control
% of control [2]: 112 % of control
Binder: Biotin-KESKDHQLLRYLLDKDEKDL [SRC-1-3 peptide KESKDHQLLRYLLDKDEKDL (the third LXXLL motif from the N-terminal side of SRC-1)]

% of control [1]: 267 % of control
% of control [2]: 157 % of control
Binder: Biotin-HGTSLKEKHKILHRLLQDSSSPVDL [TIF2 peptide HGTSLKEKHKILHRLLQDSSSPVDL (aa 679-703)]

% of control [5]: 268 % of control
% of control [6]: 127 % of control
Binder: Biotin-KQEPVSPKKKENALLRYLLDKDDTK [TIF2 NRB2 peptide KQEPVSPKKKENALLRYLLDKDDTK (aa 731-755)]

% of control [5]: 140 % of control
% of control [6]: 110 % of control
Binder: Biotin-KNPTSCSRRFYQLTKLLDSVQPIAR [PNRC peptide KNPTSCSRRFYQLTKLLDSVQPIAR (aa 848-872)]

% of control [5]: 167 % of control
% of control [6]: 92 % of control
Binder: Biotin-SPKKKENNALLRYLLDRDDPSDALSK [ACTR NRB3 peptide SPKKKENNALLRYLLDRDDPSDALSK (aa 728-753)]

% of control [1]: 207 % of control
% of control [7]: 155 % of control
% of control [2]: 128 % of control
% of control [8]: 144 % of control
Binder: Biotin-QKPTSGPQTPQAQQKSLLQQLLTE [SRC-1-4 peptide QKPTSGPQTPQAQQKSLLQQLLTE (the fourth LXXLL motif from the N-terminal side of SRC-1)]
